In patent publication US10941182 (Amgen, dated 2021):
Starred links: 1 amine or outer side, 2 acyl side, 3 side chain; linkers in the order of their positions; H or OH if unused. Non-standard residues stand in square brackets, D forms with d. Primed or numbered codes have the meaning given here. No end group written: not given here. *: point of attachment. Pra′ = its azide, alkyne or alkene has reacted where a group follows in round brackets; Atz = 3-(1,2,3-triazol-4-yl)alanine, O=C([C@H](Cc1c[nH]nn1)N[*:1])[*:2]; Propanoyl(3-triazol-4-yl) = O=C(CCc1cn([*:1])nn1)[*:2]; PEG12 = NCCOCCOCCOCCOCCOCCOCCOCCOCCOCCOCCOCCOCCC(=O)O; dBip = N[C@H](Cc1ccc(-c2ccccc2)cc1)C(=O)O; BhLeu = source's own code, no definition; BhPhe = source's own code, no definition; Oic = O=C(O)[C@@H]1C[C@@H]2CCCC[C@@H]2N1; Phe(4-Cl) = N[C@@H](Cc1ccc(Cl)cc1)C(=O)O; dPhe(4-Cl) = N[C@H](Cc1ccc(Cl)cc1)C(=O)O; Phe(4-I) = N[C@@H](Cc1ccc(I)cc1)C(=O)O; γGlu = O=C(O)[C@H](CCC(=O)[*:2])N[*:1]; d1Nal = N[C@H](Cc1cccc2ccccc12)C(=O)O; NMeR = CN[C@@H](CCCNC(=N)N)C(=O)O; Tridecanoyl = CCCCCCCCCCCCC(=O)*; hArg = N=C(N)NCCCC[C@H](N)C(=O)O; Cha = N[C@@H](CC1CCCCC1)C(=O)O; NMeL = CN[C@@H](CC(C)C)C(=O)O; AC4Abu″ = not defined here; code O = not defined here; Nle = CCCC[C@H](N)C(=O)O; Orn = NCCC[C@H](N)C(=O)O; AEEA = NCCOCCOCC(=O)O; βAla = NCCC(=O)O; Mpa = O=C(O)CCS

T1: human APJ receptor (human, UniProt P35414 1-380)
T1 sequence (looked up): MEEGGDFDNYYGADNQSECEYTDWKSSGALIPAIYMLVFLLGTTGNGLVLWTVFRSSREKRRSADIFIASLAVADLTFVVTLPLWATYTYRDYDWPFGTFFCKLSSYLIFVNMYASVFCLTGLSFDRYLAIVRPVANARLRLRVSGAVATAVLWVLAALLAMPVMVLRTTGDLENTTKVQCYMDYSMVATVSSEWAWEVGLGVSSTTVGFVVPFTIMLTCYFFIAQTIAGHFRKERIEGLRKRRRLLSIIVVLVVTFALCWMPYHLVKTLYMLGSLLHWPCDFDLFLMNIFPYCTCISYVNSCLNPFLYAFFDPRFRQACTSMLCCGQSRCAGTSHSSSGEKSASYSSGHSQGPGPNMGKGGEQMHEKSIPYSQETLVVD

T2: rat APJ receptor (rat, UniProt Q9JHG3 1-377)
T2 sequence (looked up): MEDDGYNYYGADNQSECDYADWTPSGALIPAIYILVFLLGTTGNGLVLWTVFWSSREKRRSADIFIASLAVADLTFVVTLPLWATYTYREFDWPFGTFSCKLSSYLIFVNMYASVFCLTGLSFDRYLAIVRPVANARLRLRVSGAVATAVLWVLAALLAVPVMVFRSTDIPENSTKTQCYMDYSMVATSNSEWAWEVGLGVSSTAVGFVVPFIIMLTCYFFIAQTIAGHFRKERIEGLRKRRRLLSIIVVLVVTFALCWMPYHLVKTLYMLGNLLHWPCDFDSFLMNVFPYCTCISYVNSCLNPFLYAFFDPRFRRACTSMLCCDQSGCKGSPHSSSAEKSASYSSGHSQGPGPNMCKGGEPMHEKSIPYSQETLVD


What was measured:
[1] = target: T1, human APJ receptor; test: cell-based or functional assay
[2] = target: T2, rat APJ receptor; test: cell-based or functional assay

Binder | EC50 Human APJ Receptor [1] [nM] | EC50 Rat APJ Receptor [2] [nM]
Ac-[Atz](20K‑mPEG)KFRRQRP[hArg][Cha]SHKG[Oic][Nle]P[Phe(4-Cl)]-OH [apelin polypeptide SEQ ID NO: 105] | 0.187 | 0.285
{20K mPEGacetamide}-[Mpa]QRP[hArg][Cha]SHKG[Oic][Nle]P[Phe(4-Cl)]-OH (numbers in words are those of the source; also: 20 kDa PEG conjugate) [apelin polypeptide SEQ ID NO: 101] | 46.7 | 150
{20K‑mPEGReg-Propanoyl(3-triazol-4-yl)}-[hArg]RQ[hArg]PR[NMeL]SHKG[Oic][Phe(4-I)]P[dBip]-OH (also: 20 kDa PEG conjugate) [apelin polypeptide SEQ ID NO: 104] | 18.9 | 45
Ac-[hArg][hArg]Q[hArg]P[NMeR][Cha]SHKG[Oic][Nle]P[Phe(4-Cl)]-OH (SMILES CCCC[C@H](NC(=O)[C@@H]1C[C@@H]2CCCC[C@@H]2N1C(=O)CNC(=O)[C@H](CCCCN)NC(=O)[C@H](Cc1c[nH]cn1)NC(=O)[C@H](CO)NC(=O)[C@H](CC1CCCCC1)NC(=O)[C@H](CCCNC(=N)N)N(C)C(=O)[C@@H]1CCCN1C(=O)[C@H](CCCCNC(=N)N)NC(=O)[C@H](CCC(N)=O)NC(=O)[C@H](CCCCNC(=N)N)NC(=O)[C@H](CCCCNC(=N)N)NC(C)=O)C(=O)N1CCC[C@H]1C(=O)N[C@@H](Cc1ccc(Cl)cc1)C(=O)O) [apelin polypeptide SEQ ID NO: 56] |  | 0.915
Ac-[Pra′](20K‑mPEGReg)[Orn]F[hArg][hArg]QRP[hArg][NMeL]SHKG[Oic][Phe(4-I)]P[dBip]-OH [apelin polypeptide SEQ ID NO: 107] | 10.5 | 10
{20K‑mPEGReg-Propanoyl(3-triazol-4-yl)}-[hArg][dR]Q[hArg]P[dR][NMeL]SHKG[Oic][Phe(4-I)]P[dBip]-OH (also: 20 kDa PEG conjugate) [apelin polypeptide SEQ ID NO: 103] | 34.2 | 52.2
KFRRQRP[hArg][Cha]SHKG[Oic][Nle]P[Phe(4-Cl)]-OH (not fully specified (N-terminus); printed as [MerPr](20K mPEGacetamide)KFRRQRP[hArg][Cha]SHKG[Oic][Nle]P[4-Cl-F]{COOH}; also: 20K mPEG acetamide conjugate on MerPr) [apelin polypeptide SEQ ID NO: 97] |  | 0.253
Ac-[Atz](20K‑mPEG)LRP[hArg][Cha]SHKG[Oic][Nle]P[Phe(4-Cl)]-OH [apelin polypeptide SEQ ID NO: 106] | 3.22 | 47.3
[PEG12]KFRRQRP[hArg][Cha]SHKG[Oic][Nle]P[Phe(4-Cl)]-OH (also: PEG-apelin peptide conjugate) [apelin polypeptide SEQ ID NO: 102] | 0.083 | 0.18

Next, values leading:

EC50 Human APJ Receptor [1] [nM] | EC50 Rat APJ Receptor [2] [nM] | Binder
11 | 56.2 | Tridecanoyl-[γGlu][AEEA][AEEA][dQ][hArg]P[NMeR][Cha]SHKG[Oic][Nle]P[dF]-OH (SMILES CCCCCCCCCCCCC(=O)N[C@@H](CCC(=O)NCCOCCOCC(=O)NCCOCCOCC(=O)N[C@H](CCC(N)=O)C(=O)N[C@@H](CCCCNC(=N)N)C(=O)N1CCC[C@H]1C(=O)N(C)[C@@H](CCCNC(=N)N)C(=O)N[C@@H](CC1CCCCC1)C(=O)N[C@@H](CO)C(=O)N[C@@H](Cc1c[nH]cn1)C(=O)N[C@@H](CCCCN)C(=O)NCC(=O)N1[C@H](C(=O)N[C@@H](CCCC)C(=O)N2CCC[C@H]2C(=O)N[C@H](Cc2ccccc2)C(=O)O)C[C@@H]2CCCC[C@@H]21)C(=O)O) [apelin polypeptide SEQ ID NO: 126]
3.19 | 9.99 | Tridecanoyl-[γGlu][AEEA][AEEA][hArg][dQ][hArg]P[NMeR][Cha]SHKG[Oic][Nle]P[dF]-OH (SMILES CCCCCCCCCCCCC(=O)N[C@@H](CCC(=O)NCCOCCOCC(=O)NCCOCCOCC(=O)N[C@@H](CCCCNC(=N)N)C(=O)N[C@H](CCC(N)=O)C(=O)N[C@@H](CCCCNC(=N)N)C(=O)N1CCC[C@H]1C(=O)N(C)[C@@H](CCCNC(=N)N)C(=O)N[C@@H](CC1CCCCC1)C(=O)N[C@@H](CO)C(=O)N[C@@H](Cc1c[nH]cn1)C(=O)N[C@@H](CCCCN)C(=O)NCC(=O)N1[C@H](C(=O)N[C@@H](CCCC)C(=O)N2CCC[C@H]2C(=O)N[C@H](Cc2ccccc2)C(=O)O)C[C@@H]2CCCC[C@@H]21)C(=O)O) [apelin polypeptide SEQ ID NO: 149]
8.62 | 49.6 | Tridecanoyl-[γGlu][AEEA][AEEA][dR]Q[hArg]P[dR][NMeL]SHKG[Oic][Phe(4-I)]P[d1Nal]-OH (SMILES CCCCCCCCCCCCC(=O)N[C@@H](CCC(=O)NCCOCCOCC(=O)NCCOCCOCC(=O)N[C@H](CCCNC(=N)N)C(=O)N[C@@H](CCC(N)=O)C(=O)N[C@@H](CCCCNC(=N)N)C(=O)N1CCC[C@H]1C(=O)N[C@H](CCCNC(=N)N)C(=O)N(C)[C@@H](CC(C)C)C(=O)N[C@@H](CO)C(=O)N[C@@H](Cc1c[nH]cn1)C(=O)N[C@@H](CCCCN)C(=O)NCC(=O)N1[C@H](C(=O)N[C@@H](Cc2ccc(I)cc2)C(=O)N2CCC[C@H]2C(=O)N[C@H](Cc2cccc3ccccc23)C(=O)O)C[C@@H]2CCCC[C@@H]21)C(=O)O) [apelin polypeptide SEQ ID NO: 155]
3.75 | 72 | Tridecanoyl-[γGlu][AEEA][AEEA][dR]Q[hArg]P[dR][NMeL]SHKG[Oic][Phe(4-I)]P[Oic]-OH (SMILES CCCCCCCCCCCCC(=O)N[C@@H](CCC(=O)NCCOCCOCC(=O)NCCOCCOCC(=O)N[C@H](CCCNC(=N)N)C(=O)N[C@@H](CCC(N)=O)C(=O)N[C@@H](CCCCNC(=N)N)C(=O)N1CCC[C@H]1C(=O)N[C@H](CCCNC(=N)N)C(=O)N(C)[C@@H](CC(C)C)C(=O)N[C@@H](CO)C(=O)N[C@@H](Cc1c[nH]cn1)C(=O)N[C@@H](CCCCN)C(=O)NCC(=O)N1[C@H](C(=O)N[C@@H](Cc2ccc(I)cc2)C(=O)N2CCC[C@H]2C(=O)N2[C@H](C(=O)O)C[C@@H]3CCCC[C@@H]32)C[C@@H]2CCCC[C@@H]21)C(=O)O) [apelin polypeptide SEQ ID NO: 153]
 | 0.188 | [code O][BhPhe][hArg][hArg]Q[hArg]P[hArg][Cha]SHKG[Oic][Nle]P[Phe(4-Cl)] (reading uncertain; also: printed as O[BhPhe][hArg][hArg]Q[hArg]P[hArg][Cha]SHKG[Oic][Nle]P[4-Cl-F]) [apelin polypeptide SEQ ID NO: 686]
0.515 |  | Tridecanoyl-[AC4Abu″][AEEA][AEEA]RQRP[hArg][NMeL]SHKG[Oic][Phe(4-I)]P[dBip]-OH (reading uncertain) [apelin polypeptide SEQ ID NO: 212]
 | 0.503 | [code O]F[hArg][hArg][BhLeu][hArg]P[hArg][Cha]SHKG[Oic][Nle]P[Phe(4-Cl)] (reading uncertain; also: printed as OF[hArg][hArg][BhLeu][hArg]P[hArg][Cha]SHKG[Oic][Nle]P[4-Cl-F]) [apelin polypeptide SEQ ID NO: 692]
4.54 | 40.5 | Tridecanoyl-[γGlu][AEEA][AEEA][dR]Q[hArg]P[dR][NMeL]SHKG[Oic][Phe(4-I)]P[dPhe(4-Cl)]-OH (SMILES CCCCCCCCCCCCC(=O)N[C@@H](CCC(=O)NCCOCCOCC(=O)NCCOCCOCC(=O)N[C@H](CCCNC(=N)N)C(=O)N[C@@H](CCC(N)=O)C(=O)N[C@@H](CCCCNC(=N)N)C(=O)N1CCC[C@H]1C(=O)N[C@H](CCCNC(=N)N)C(=O)N(C)[C@@H](CC(C)C)C(=O)N[C@@H](CO)C(=O)N[C@@H](Cc1c[nH]cn1)C(=O)N[C@@H](CCCCN)C(=O)NCC(=O)N1[C@H](C(=O)N[C@@H](Cc2ccc(I)cc2)C(=O)N2CCC[C@H]2C(=O)N[C@H](Cc2ccc(Cl)cc2)C(=O)O)C[C@@H]2CCCC[C@@H]21)C(=O)O) [apelin polypeptide SEQ ID NO: 154]
7.46 |  | [code O]F[hArg][hArg]Q[hArg]P[hArg][Cha]SHKG[Oic][βAla]P[Phe(4-Cl)] (reading uncertain; also: printed as OF[hArg][hArg]Q[hArg]P[hArg][Cha]SHKG[Oic][bAla]P[4-Cl-F]) [apelin polypeptide SEQ ID NO: 708]
0.152 |  | [hArg]Q[hArg]P[NMeR][Cha]SHKG[Oic][Nle]P[Phe(4-Cl)] [apelin polypeptide SEQ ID NO: 674]
